Experiment [1] has as its target T1, mouse 5-HT3A receptor R349A, full length (mouse) (UniProt P23979).
T1 sequence: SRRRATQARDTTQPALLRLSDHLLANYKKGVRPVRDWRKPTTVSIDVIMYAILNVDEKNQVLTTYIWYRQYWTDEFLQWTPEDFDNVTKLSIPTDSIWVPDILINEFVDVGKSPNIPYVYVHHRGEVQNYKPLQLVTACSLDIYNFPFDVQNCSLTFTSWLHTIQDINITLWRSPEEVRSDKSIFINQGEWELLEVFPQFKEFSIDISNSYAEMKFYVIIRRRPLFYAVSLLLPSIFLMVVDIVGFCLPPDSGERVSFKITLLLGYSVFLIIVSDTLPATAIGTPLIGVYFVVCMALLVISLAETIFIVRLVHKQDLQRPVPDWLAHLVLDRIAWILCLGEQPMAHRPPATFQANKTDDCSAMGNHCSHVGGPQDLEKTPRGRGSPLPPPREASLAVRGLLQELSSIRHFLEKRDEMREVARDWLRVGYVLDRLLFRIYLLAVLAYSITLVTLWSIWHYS

In experiment [2] the target is T2, mouse 5-HT3A receptor L353A, full length (mouse) (UniProt P23979).
T2 sequence: T1 sequence with A326R, L330A

Experiment [3] concerns the target T3, mouse 5-HT3A receptor, wild type, full length (mouse) (UniProt P23979).
T3 sequence: T1 sequence with A326R

Experiment [4] addresses T4, mouse 5-HT3A receptor W347A, full length (mouse) (UniProt P23979).
T4 sequence: T1 sequence with W324A, A326R

In experiment [5] the target is T5, mouse 5-HT3A receptor W347A, R349A, L353A, full length (mouse) (UniProt P23979).
T5 sequence: T1 sequence with W324A, L330A

The target in experiment [6] is T6, mouse 5-HT3A receptor W447A, R449A, L454A, full length (mouse) (UniProt P23979).
T6 sequence: T1 sequence with A326R, W424A, R426A, L431A

Substitutions are numbered along the chain they refer to.

B1: resistance to inhibitors of choline esterase (RIC-3) protein (natural protein)
chain: SRGKRQEPPPTPEGKLGRFPPMMHHHQAPSDGQTPGARFQRSHLAEAFAKAKGSGGGAGGGGSGRGLMGQIIPIYGFGIFLYILYILFKLSKGKTTAEDGKCYTAMPGNTHRKITSFELAQLQEKLKETEAAMEKLINRVGPNGESRAQTVTSDQEKRLLHQLREITRVMKEGKFIDRFSPEKEAEEAPYMEDWEGYPEETYPIYDLSDCIKRRQETILVDYPDPKELSAEEIAERMGMIEEEESDHLGWESLPTDPRAQEDNSVTSCDPKPETCSCCFHEDEDPAVLAENAGFSADSYPEQEETTKEEWSQDFKDEGLGISTDKAYTGSMLRKRNPQGLE
For the molecule B1, the remaining current (%): peak 5-HT-evoked current of 5-HT3A channels co-expressed with RIC-3 divided by that of the channels alone; TEVC in Xenopus oocytes, 10 uM serotonin in experiment [1] was found to be 33.9%; in experiment [2] it was 50%; in experiment [3], 15.6%; in experiment [4] it was 43.4%; in experiment [5], 40.6%; in experiment [6] it was 36.9%.

For the origin of these results see PMC10083716.
